Consider one molecule from US20230173068A1 (BIO THERA SOLUTIONS, published 2023).

Test [1] addresses T1, FcRn-biotin (ACRO Biosystems, Cat #FCM-H82W4) (UniProt P55899 24-297; P61769 21-119, biotin (site not stated)).
T1 construct: Bought biotinylated protein, immobilised on a streptavidin (SA) biosensor; the natural receptor is a heterodimer of FCGRT and B2M
As to the kind of experiment: BLI (Octet QKe), FcRn-biotin on SA biosensor, antibody as analyte. The protocol:
The cycle of regeneration and neutralization was performed 3 times.
(In general: Biolayer interferometry detects binding as a change in optical thickness at a sensor tip.)

For test [2], the target named is T2, FcγRIIIa (F158)-biotin (ACRO Biosystems, Cat #CDA-H82E8) (UniProt P08637 17-208, biotin (site not stated)).
T2 construct: Bought biotinylated protein, immobilised on an SA biosensor
As to the kind of experiment: BLI (Octet QKe), FcγRIIIa (F158)-biotin on SA biosensor, antibody as analyte. The protocol: Specific experimental method for binding to FcγRIIIa (F158) were as follows. FcγRIIIa (F158)-biotin (ACRO Biosystems, Cat #CDA-H82E8) was diluted to 1 μg/mL. An SA Biosensor (Fertebio, Cat #18-5019) was immobilize in FcγRIIIa (F158)-biotin dilution to a signal of approximately 0.6 nm.
The cycle of regeneration and neutralization was performed 3 times. The data was processed and analyzed using Data Analysis 8.2, and the sample data was fitted after sample blank (PBS) signal subtraction to obtain an affinity constant (KD).

In test [3] the target is T3, FcγRIIIa (V158)-biotin (ACRO Biosystems, Cat #CDA-H82E9) (UniProt P08637 17-208, biotin (site not stated)).
T3 construct: Bought biotinylated protein, immobilised on an SA biosensor
As to the kind of experiment: BLI (Octet QKe), FcγRIIIa (V158)-biotin on SA biosensor, antibody as analyte. The protocol: Specific experimental method for binding to FcγRIIIa (V158) were as follows. FcγRIIIa (V158)-biotin (ACRO Biosystems, Cat #CDA-H82E9) was diluted to 1 μg/mL. An SA Biosensor (Fertebio, Cat #18-5019) was immobilize in FcγRIIIa (V158)-biotin dilution to a signal of approximately 0.6 nm. […] The cycle of regeneration and neutralization was performed 3 times. The data was processed and analyzed using Data Analysis 8.2, and the sample data was fitted after sample blank (PBS) signal subtraction to obtain an affinity constant (KD).

T3 sequence (P08637 17-208 F176V): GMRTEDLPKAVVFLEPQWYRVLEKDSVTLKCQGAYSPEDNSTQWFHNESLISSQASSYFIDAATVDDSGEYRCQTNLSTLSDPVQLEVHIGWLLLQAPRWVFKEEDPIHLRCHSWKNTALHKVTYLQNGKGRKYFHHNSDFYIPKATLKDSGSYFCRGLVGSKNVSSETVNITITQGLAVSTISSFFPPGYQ
T1 sequence (P55899 24-297 limits assumed, form in doubt, chain 1 of 2): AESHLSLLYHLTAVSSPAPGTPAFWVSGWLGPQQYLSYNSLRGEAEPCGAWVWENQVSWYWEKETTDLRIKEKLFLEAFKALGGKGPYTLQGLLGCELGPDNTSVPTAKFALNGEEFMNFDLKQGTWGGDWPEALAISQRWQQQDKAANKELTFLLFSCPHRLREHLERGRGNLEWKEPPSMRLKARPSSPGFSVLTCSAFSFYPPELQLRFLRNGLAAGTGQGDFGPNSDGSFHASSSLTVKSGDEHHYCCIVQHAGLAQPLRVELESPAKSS
T1 sequence (P61769 21-119 limits assumed, form in doubt, chain 2 of 2): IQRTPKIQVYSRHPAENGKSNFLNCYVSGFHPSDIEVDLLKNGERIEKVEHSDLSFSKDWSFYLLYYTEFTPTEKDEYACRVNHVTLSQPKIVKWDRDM
T2 sequence (P08637 17-208 limits assumed): as the sequence (P08637 17-208 F176V) above, with V160F counted along it

B1: Simponi (golimumab), commercially available (antibody, human IgG1, kappa)
heavy: not shown
light: not shown
notes: Bought product (Janssen Biologics B.V.); It differs from Antibody A by a higher NGNA glycosylation level; also called commercially available anti-TNF-α antibody; copies: 2 + 2
As for B1, the dissociation constant Kd (in general, the constant that tells how readily two partners part at equilibrium) in test [1] was 6.09 to 8.67 nM; in test [2], 93 to 111 nM; in test [3], 20.1 to 42.2 nM.
